Test [1] addresses T1, FcγRIIa H (human, UniProt P12318 34-217).
T1 construct: extracellular domain; also called FcgRIIa H type; 2aH
T1 sequence (looked up): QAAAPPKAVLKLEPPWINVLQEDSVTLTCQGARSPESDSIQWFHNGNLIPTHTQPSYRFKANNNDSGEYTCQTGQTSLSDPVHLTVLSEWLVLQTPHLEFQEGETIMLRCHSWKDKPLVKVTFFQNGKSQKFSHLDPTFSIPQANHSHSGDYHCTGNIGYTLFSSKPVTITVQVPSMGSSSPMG
Kind of test: SPR (Biacore), antibody captured on antigen-peptide chip, FcγR as analyte; binding relative to GpH7-A5/GpH7-B3/GpL16-k0 = 100. (In SPR one partner is held on a chip, and binding of the other changes the refractive index at the surface.)

The target in a further test is T2, FcγRIIb (human, UniProt P31994 43-217).
T2 construct: extracellular domain; also called FcgRIIb; 2b
T2 sequence (looked up): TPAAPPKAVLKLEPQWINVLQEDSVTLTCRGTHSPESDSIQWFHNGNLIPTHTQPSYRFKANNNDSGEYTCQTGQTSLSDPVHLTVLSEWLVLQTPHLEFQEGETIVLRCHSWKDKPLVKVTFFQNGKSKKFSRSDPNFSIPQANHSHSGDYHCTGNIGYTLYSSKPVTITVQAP
Described as above.

Test [2] deals with T1, FcγRIIa H. As to the kind of experiment: ratio of He/Con_2aH to He/Con_2b (relative SPR binding to FcγRIIa H over that of the same antibody to FcγRIIb).
In test [3] the target is T3, FcγRIIa H (FcγRIIa type H, His at position 131), extracellular domain with C-terminal His tag (human, UniProt P12318 34-217).
T3 construct: extracellular domain; also called 2aH; FcgRIIa H; not shown: His tag at the C terminus
T3 sequence (looked up): T1 sequence (looked up)
Kind of test: ratio of He/Con_2aH (FcγRIIa H) to He/Con_2b (FcγRIIb), SPR relative binding. As to the method: (§1) The heterodimerized antibodies He Abs in which one of the H chains was introduced with an alteration were assayed for their binding activities to each activating FcγR and inhibitory FcγR according to the method described in Example 4. […] The activating FcγRs in FIGS. 26, 27, 28, and 29 are FcγRIa, FcγRIIa (R), FcγRIIa (H), and FcγRIIIa, respectively.
(§2) Analysis of interaction between objective antibody and the FcγR was carried out using Biacore T100 (GE Healthcare). HBS-EP+ (GE Healthcare) was used as the running buffer, and the measurement temperature was set to 25° C. Chips produced by immobilizing the antigen peptide by the amine coupling method to a Series S Sencor Chip CM5 (GE Healthcare), or alternatively, chips produced by allowing preliminarily biotinylated antigen peptides to interact with and immobilize onto a Series S Sensor Chip SA (certified) (GE Healthcare) were used. Antibodies of interest were captured onto an antigen peptide-immobilized chip, and allowed to interact to each FcγR diluted with running buffer. To regenerate and repeatedly use the chip, the antibodies captured on the chip were washed off by reacting 10 mM glycine-HCl, pH 1.5.

Test [4] has as its target T3, FcγRIIa H (FcγRIIa type H, His at …). Kind of test: SPR (Biacore), antibody captured on antigen-peptide chip, FcγR as analyte; GpH7-A5/GpH7-B3/GpL16-k0 = 100. How it is done: as §1, §2
Test [5] addresses T4, FcγRIIb, extracellular domain with C-terminal His tag (human, UniProt P31994 43-217).
T4 construct: extracellular domain; also called 2b; FcgRIIb; not shown: His tag at the C terminus
T4 sequence (looked up): T2 sequence (looked up)
The description is as above. As to the method: as §1, §2

For test [6], the target named is T5, FcγRIIIa extracellular domain with C-terminal His tag (human, UniProt P08637 17-208).
T5 construct: extracellular domain; also called FcgRIIIa; 3a; not shown: His tag at the C terminus
Kind of test: ratio of He/Con_3a to He/Con_2b (FcγRIIIa over FcγRIIb), SPR relative binding. How it is done:
as §1, §2

The target in test [7] is T6, FcγRIIb extracellular domain with C-terminal His tag (human, UniProt P31994 43-217).
T6 construct: extracellular domain; also called FcgRIIb; 2b; not shown: His tag at the C terminus
T6 sequence (looked up): T2 sequence (looked up)
Kind of test: SPR (Biacore), antibody captured via antigen peptide, FcγR as analyte; binding relative to GpH7-A5/GpH7-B3/GpL16-k0 = 100.

The target in test [8] is T5, FcγRIIIa extracellular domain with …. Described as above.

T5 sequence (P08637 17-208): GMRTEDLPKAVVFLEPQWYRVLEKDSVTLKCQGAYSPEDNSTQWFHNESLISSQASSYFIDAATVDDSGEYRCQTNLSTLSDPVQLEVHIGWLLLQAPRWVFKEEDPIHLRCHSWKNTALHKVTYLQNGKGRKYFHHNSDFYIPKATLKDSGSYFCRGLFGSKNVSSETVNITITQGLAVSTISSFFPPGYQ

B1: GpH7-A5/GpH7-B3 variant D265_20W/GpL16-k0 (antibody, human IgG1, kappa)
heavy 1: not shown
heavy 2: not shown
light: DIVMTQSPLSLPVTPGEPASISCQASESLVHSNRNTYLHWYLQKPGQSPQLLIYKVSNRFSGVPDRFSGSGSGTDFTLKISRVEAEDVGVYYCSQNTHVPPTFGQGTKVEIERTVAAPSVFIFPPSDEQLKSGTASVVCLLNNFYPREAKVQWKVDNALQSGNSQESVTEQDSKDSTYSLSSTLTLSKADYEKHKVYACEVTHQGLSSPVTKSFNRGEC
notes: Heterodimerized anti-glypican-3 IgG1; substitution in only one H chain (the GpH7-B3 chain); also called He Ab
Take B1: the He/Con_2aH with FcγRIIa H [1] was 3.2 % of HeCon Ab. Moreover, the He/Con_2b with FcγRIIb is 1.1 % of HeCon Ab. Also, in the test with FcγRIIa H [2], the “He_2aH/2b (IIaH/IIb)” value amounted to 2.86.

B2: GpH7-A5/GpH7-B3 variant V266_01G/GpL16-k0 (antibody, human IgG1, kappa)
heavy 1: not shown
heavy 2: not shown
light: B1 light
notes: Heterodimerized IgG1 (He Ab); mutation only in the GpH7-B3 chain; also called He Ab V266G
In the case of B2, in test [3], the “He_2aH/2b (IIaH/IIb ratio)” value is 0.71. Besides, the “He/Con_2aH (relative binding activity)” value in [4] is 36.7 % of control. Further, in test [5], the “He/Con_2b (relative binding activity)” value is 51.5 % of control.

B3: GpH7-A5/GpH7-B3 variant D270_01G/GpL16-k0 (antibody, human IgG1, kappa)
heavy 1: not shown
heavy 2: not shown
light: B1 light
notes: He Ab: the mutation stands only in the GpH7-B3-derived H chain; also called He Ab D270G
Take B3: the “IIIa/IIb (He_3a/2b)” value in test [6] turned out to be 1.26. Moreover, the He/Con_2b in [7] was 30.5 relative (control = 100). The He/Con_3a in [8] was 38.5 relative (control = 100).

B4: GpH7-A5/GpH7-B3 variant H268_06M/GpL16-k0 (antibody, human IgG1, kappa)
heavy 1: not shown
heavy 2: not shown
light: B1 light
notes: as for B1
As to B4, the He/Con_2aH in the test with FcγRIIa H [1] is 84.8 % of HeCon Ab. For the same molecule, in the test with FcγRIIb, the He/Con_2b was 65.7 % of HeCon Ab. Further, the “He_2aH/2b (IIaH/IIb)” value with FcγRIIa H [2] is 1.29.

B5: GpH7-A5/GpH7-B3 variant D270_10E/GpL16-k0 (antibody, human IgG1, kappa)
heavy 1: not shown
heavy 2: not shown
light: B1 light
notes: He Ab: the mutation stands only in the GpH7-B3-derived H chain; also called He Ab D270E
With B5, the “IIIa/IIb (He_3a/2b)” value in test [6] was found to be 1.61. Further, the He/Con_2b in test [7] is 76.5 relative (control = 100). Further, the He/Con_3a in test [8] is 123 relative (control = 100).

B6: GpH7-A5/GpH7-B3 variant D270_15Y/GpL16-k0 (antibody, human IgG1, kappa)
heavy 1: not shown
heavy 2: not shown
light: B1 light
notes: He Ab: the mutation stands only in the GpH7-B3-derived H chain; also called He Ab D270Y
Regarding B6, in test [6], the “IIIa/IIb (He_3a/2b)” value is 1.22. Further, in test [7], the He/Con_2b was 44.9 relative (control = 100). In addition, in test [8], the He/Con_3a is 54.5 relative (control = 100).

B7: GpH7-A5/GpH7-B3 variant H268_08L/GpL16-k0 (antibody, human IgG1, kappa)
heavy 1: not shown
heavy 2: not shown
light: B1 light
notes: as for B1
Take B7: in the test with FcγRIIa H [1], the He/Con_2aH was 85 % of HeCon Ab. For the same molecule, the He/Con_2b in the test with FcγRIIb is 67.8 % of HeCon Ab. Besides, the “He_2aH/2b (IIaH/IIb)” value with FcγRIIa H [2] amounted to 1.25.

B8: GpH7-A5/GpH7-B3 variant D270_12R/GpL16-k0 (antibody, human IgG1, kappa)
heavy 1: not shown
heavy 2: not shown
light: B1 light
notes: He Ab: the mutation stands only in the GpH7-B3-derived H chain; also called He Ab D270R
Regarding B8, the “IIIa/IIb (He_3a/2b)” value in test [6] worked out at 1.58. Moreover, in test [7], the He/Con_2b is 18.3 relative (control = 100). Further, the He/Con_3a in [8] was 28.8 relative (control = 100).

B9: GpH7-A5/GpH7-B3 variant D270_19Q/GpL16-k0 (antibody, human IgG1, kappa)
heavy 1: not shown
heavy 2: not shown
light: B1 light
notes: He Ab: the mutation stands only in the GpH7-B3-derived H chain; also called He Ab D270Q
For the molecule B9, in test [6], the “IIIa/IIb (He_3a/2b)” value came out at 1.7. Besides, the He/Con_2b in test [7] is 48 relative (control = 100). Also, in test [8], the He/Con_3a was 81.9 relative (control = 100).

B10: GpH7-A5/GpH7-B3 variant Q295_02A/GpL16-k0 (antibody, human IgG1, kappa)
heavy 1: not shown
heavy 2: not shown
light: B1 light
notes: He Ab: the mutation stands only in the GpH7-B3-derived H chain; also called He Ab Q295A
In the case of B10, in test [6], the “IIIa/IIb (He_3a/2b)” value was determined as 1.32. For the same molecule, in test [7], the He/Con_2b is 79.7 relative (control = 100). Further, the He/Con_3a in test [8] was 106 relative (control = 100).

B11: GpH7-A5/GpH7-B3 variant D270_07I/GpL16-k0 (antibody, human IgG1, kappa)
heavy 1: not shown
heavy 2: not shown
light: B1 light
notes: He Ab: the mutation stands only in the GpH7-B3-derived H chain; also called He Ab D270I
Consider B11, for which the “IIIa/IIb (He_3a/2b)” value in [6] was 1.68. Besides, the He/Con_2b in [7] is 41.5 relative (control = 100). In test [8], the He/Con_3a is 69.6 relative (control = 100).

B12: GpH7-A5/GpH7-B3 variant P271_20W/GpL16-k0 (antibody, human IgG1, kappa)
heavy 1: not shown
heavy 2: not shown
light: B1 light
notes: He Ab: the mutation stands only in the GpH7-B3-derived H chain; also called He Ab P271W
For B12, the “IIIa/IIb (He_3a/2b)” value in test [6] is 1.28. Further, the He/Con_2b in test [7] is 58.1 relative (control = 100). The He/Con_3a in test [8] is 74.1 relative (control = 100).
